The values that follow come from US20230051715A1 (MABWELL THERAPEUTICS, published 2023).

Assay [1] has as its target T1, rat C1s (produced in house) (rat, UniProt Q6P6T1 16-688).
T1 construct: also called RaC1s
T1 sequence: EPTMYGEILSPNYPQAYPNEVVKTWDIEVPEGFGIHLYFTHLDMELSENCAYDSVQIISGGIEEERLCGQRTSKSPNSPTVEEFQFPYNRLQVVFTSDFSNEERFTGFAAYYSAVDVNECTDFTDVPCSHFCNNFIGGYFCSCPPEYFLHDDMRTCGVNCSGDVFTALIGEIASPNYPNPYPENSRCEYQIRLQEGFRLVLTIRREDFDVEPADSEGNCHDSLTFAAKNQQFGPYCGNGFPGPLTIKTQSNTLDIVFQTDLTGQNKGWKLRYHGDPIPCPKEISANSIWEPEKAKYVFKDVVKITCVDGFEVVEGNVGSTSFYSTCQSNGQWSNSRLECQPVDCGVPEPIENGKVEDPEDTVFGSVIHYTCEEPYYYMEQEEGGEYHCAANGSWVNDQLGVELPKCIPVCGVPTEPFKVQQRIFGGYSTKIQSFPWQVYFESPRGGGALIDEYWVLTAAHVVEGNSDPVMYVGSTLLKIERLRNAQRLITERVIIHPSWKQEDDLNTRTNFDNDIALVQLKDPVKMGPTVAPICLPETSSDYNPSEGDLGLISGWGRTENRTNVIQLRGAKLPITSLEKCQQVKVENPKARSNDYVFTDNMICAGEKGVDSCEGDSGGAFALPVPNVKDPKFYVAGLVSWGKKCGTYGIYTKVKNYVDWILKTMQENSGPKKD
The experiment in a line: BLI (Octet RED96e), antibody on AHC biosensor; C1s Species: Rat; R^2 0.9718. The source says: (§1) At last, analyte was dissociated in 1×KB for 360 sec. Data analysis was done using OCTET® Data Analysis HT Software (Sartorius AG).
(In general: In BLI a coated tip is dipped into the sample, and binding shifts an interference pattern.)

Assay [2] concerns the target T2, human C1s deletion mutant 3 (NHCΔ33) (human, UniProt P09871 16-404).
T2 construct: C-terminal 6xHis tag; also called human C1s (NHCΔ33); C1s (NHCΔ33)
T2 sequence: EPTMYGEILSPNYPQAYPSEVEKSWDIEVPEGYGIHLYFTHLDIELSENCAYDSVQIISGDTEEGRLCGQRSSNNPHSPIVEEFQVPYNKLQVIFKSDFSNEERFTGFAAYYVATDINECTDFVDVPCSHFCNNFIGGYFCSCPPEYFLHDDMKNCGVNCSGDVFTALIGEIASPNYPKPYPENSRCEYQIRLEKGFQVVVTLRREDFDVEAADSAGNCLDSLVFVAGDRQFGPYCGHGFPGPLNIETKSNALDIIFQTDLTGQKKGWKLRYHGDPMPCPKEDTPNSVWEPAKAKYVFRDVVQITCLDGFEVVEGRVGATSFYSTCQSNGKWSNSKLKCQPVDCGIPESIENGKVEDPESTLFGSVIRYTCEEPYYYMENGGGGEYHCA
The experiment in a line: ELISA, C1s fragment coated on plate; hz2-8(H1L2 G80A/T82A), second of the two values. As for the experimental part: ELISA was carried out by first coating 96-well plates with 200 ng/well of full-length or truncated C1s proteins overnight. The next morning, plates were blocked with SuperBlock T20 blocking buffer (Thermo Scientific 37536) for 1 h with gentle shaking. Then, various concentrations of anti-C1s antibodies diluted in SuperBlock T20 blocking buffer were added to the plates and incubated for 1 h with gentle shaking. Mouse IgG (Sigma-Aldrich 15381) and human IgG1 (BioXCell BP0297) were used as negative controls. The plates were washed before incubating with HRP conjugated secondary antibodies diluted in SuperBlock T20 blocking buffer (goat anti-mouse IgG (H+L) cross-adsorbed secondary antibody HRP (Invitrogen G-21040) or goat anti-human IgG antibody, HRP conjugate (Millipore AP309P)) for 1 h with gentle shaking. At last, the plates were washed and color developed with ELISA liquid HRP substrate (Sigma-Aldrich), followed by stopping the reaction with addition of 1M H₂SO₄ in the same volume as the ELISA liquid substrate. Bound antibody was measured by absorbance at OD₄₅₀ₙₘ.
Binding of various anti-C1s antibodies to human C1s (NHCΔ33) (SEQ ID NO: 111) was carried out by ELISA as described in Example 4, and results are shown in FIG. 6A.
On the technique in general: In an ELISA, binding on a coated surface is turned into a signal by an enzyme label.

Assay [3] addresses T3, cynomolgus monkey C1s (produced in house) (cynomolgus monkey, UniProt P09871 16-685 (human entry), limits assumed).
T3 construct: also called CyC1s
T3 chain: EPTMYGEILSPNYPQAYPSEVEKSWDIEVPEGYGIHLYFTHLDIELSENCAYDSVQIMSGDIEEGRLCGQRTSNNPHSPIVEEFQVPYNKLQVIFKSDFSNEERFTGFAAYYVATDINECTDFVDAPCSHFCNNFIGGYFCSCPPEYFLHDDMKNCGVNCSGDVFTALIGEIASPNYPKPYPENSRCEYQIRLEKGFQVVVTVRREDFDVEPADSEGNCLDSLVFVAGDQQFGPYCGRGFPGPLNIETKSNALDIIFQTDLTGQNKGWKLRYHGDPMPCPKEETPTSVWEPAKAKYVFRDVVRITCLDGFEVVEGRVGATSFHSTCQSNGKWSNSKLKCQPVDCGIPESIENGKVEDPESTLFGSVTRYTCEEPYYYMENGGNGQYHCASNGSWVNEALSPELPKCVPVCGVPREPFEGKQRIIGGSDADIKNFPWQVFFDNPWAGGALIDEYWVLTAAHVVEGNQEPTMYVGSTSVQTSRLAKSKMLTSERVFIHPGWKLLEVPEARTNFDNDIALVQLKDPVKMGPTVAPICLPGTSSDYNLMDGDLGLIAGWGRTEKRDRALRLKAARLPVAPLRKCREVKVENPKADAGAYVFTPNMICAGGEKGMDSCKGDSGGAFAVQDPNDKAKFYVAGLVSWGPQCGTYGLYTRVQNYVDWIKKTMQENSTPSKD
The experiment in a line: BLI (Octet RED96e), antibody on AHC biosensor; C1s Species: Cyno Monkey; R^2 0.9999.
Excerpt: as §1

In general, Kd refers to the free concentration of one partner at which half of the binding sites on the other are occupied at equilibrium, for simple one-to-one binding. As a reminder, the koff is the rate constant with which the complex falls apart. Broadly, the kon is the second-order rate constant of association. What is called EC50 is the concentration needed to bring the measured effect to its halfway point.

B1: Anti-C1s antibody hz2-8 (H1L2 G80A/T82A) (antibody, V domains shown)
VH: QVQLVQSGAEVKKPGASVKVSCKASGFNIKEYYMHWVRQAPEQGLEWMGWIDPENADAIYAQKFQGRVTITADTSTNTAYMELSSLRSEDTAVYYCARSRLFFAYWGQGTLVTVSS
VL: DIQMTQSPKSLSASVGDRVTITCRASQDVRTALDWYQQKPGQSPKLLIYSASYRYSGVPSRFSGSGSGTDFTLTISSLQPEDFATYYCQQQYTTPYTFGQGTKLEIKR
notes: Humanized variant with G80A and T82A in HC CDR2 (already in the entry), human IgG1 / kappa
Regarding B1, in assay [1], the affinity, expressed as Kd, was 16 nM; the koff amounted to 0.0012 s⁻¹; the on-rate (kon) was determined as 75000 M⁻¹ s⁻¹. The molecule also had an EC50 in assay [2] of 0.015 µg/mL.

B2: Anti-C1s antibody 2-7 (antibody, human IgG1, kappa, V domains shown)
VH: EVKLEESGGGLVPPGGSMKLSCVASGFTFSNYFMNWVRQSPEKGLEWVAEIRLKFTNYATHYAESVEGRFTISRDDSKSSVYLQMNNLRAEDTGIYYCTRDYGSRNGYFDYWGQGTTLTVSS
VL: DIVMTQAAPSVPVTPGESVSISCRSSKSLLHSNGNTFLYWFLQRPGQSPQLLIYRMSNLASGVPDRFSGSGSGTAFTLRVSRVEAEDVGIYYCMQHLEYPYTFGGGTKLEIKT
notes: the HC/LC entries may hold it too; also called clone 2-7
In assay [3], B2 returned a Kd of 0.23 nM, an off-rate constant (koff) of 6.5e-05 s⁻¹ and an on-rate constant (kon) of 280000 M⁻¹ s⁻¹.
